Results from patent publication US20220089705A1.

What was measured:
[1] = molecular target: aP2 (species not stated in the passage) (Homo sapiens (Human)) (UniProt P15090); assay: column head 'Affinity'; assay and aP2 species not printed on the sheet (the two other values of the column, 6.03 and 5.82 µM, equal the human aP2 averages of FIG. 31)
[2] = molecular target: aP2 (species not stated in the passage) (Homo sapiens (Human)) (UniProt P15090); assay: SPR and Octet ranking of H3 variants; value of the parent H3; species of aP2 not stated

Row | Kd [1] [µM] | Kd [2] [µM] | Binder
1 | 6.5 | – | CA33, rabbit-mouse hybrid anti-aP2 monoclonal antibody (Rabbit Ab 909) (antibody, V domains shown) VH: QSVEESGGRLVTPGTPLTLTCTVSGFSLSTYYMSWVRQAPGKGLEWIGIIYPSGSTYCASWAKGRFTISKASTTVDLKITSPTTEDTATYFCARPDNDGTSGYLSGFGLWGQGTLVTVSS VL: DVVMTQTPASVSEPVGGTVTIKCQASEDISRYLVWYQQKPGQPPKRLIYKASTLASGVPSRFKGSGSGTDFTLTISDLECDDAATYYCQCTYGTYAGSFFYSFGGGTEVVVE
2 | – | < 0.07 | H3, mouse anti-aP2 monoclonal antibody (H3 gL1/gH1) (antibody, V domains shown) VH: QVQLQQPGAELVKPGASVKLSCKASGYTFTSNWITWVKQRPGQGLEWIGDIYPGSGSTTNNEKFKSKATLTVDTSSSTAYMQLSSLTSEDSAVYYCARLRGYYDYFDFWGQGTTLTVSS VL: EVVLTQSPALMAASPGEKVTITCSVSSSISSSNLHWYQQKSETSPKPWIYGTSNLASGVPVRFSGSGSGTSYSLTISSMEAEDAATYYCQQWSHYPLTFGAGTKLELK
